The record followed here is the supplement of paper PMC9112550, “Optimization of the antimicrobial peptide Bac7 by deep mutational scanning” (BMC Biology, 2022).
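Further: peptides expressed intracellularly from a pBAD plasmid library in pooled LB shake-flask culture, induced with 0.3% L-arabinose, DNA abundance read by NGS, three biological replicates, DESeq2 with apeglm shrinkage.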

The subject of the series is Escherichia coli TOP10. As to the kind of experiment: shrunken log2 fold change of peptide-encoding DNA abundance (4.5 h post-induction vs induction); higher = less antimicrobial activity (less host growth inhibition). As to conditions: time post-induction: 4.5 h; library: site-saturation at positions 5, 18, 19, 20.
In the case of RRIRTRPPRLPRPRPRPMMHPRP, the “shrunken log2 fold change” value is -0.302.
As for RRIRTRPPRLPRPRPRPCKKPRP, the figure is -0.0502; as for RRIRERPPRLPRPRPRPYGWPRP, -0.135; as for RRIRQRPPRLPRPRPRPYNDPRP, 0.00408.
The figure for RRIRARPPRLPRPRPRPYRWPRP is 0.0451; for RRIRSRPPRLPRPRPRPPNDPRP it is -0.0183; for RRIRGRPPRLPRPRPRPQHFPRP it is 0.139.
As for RRIRLRPPRLPRPRPRPILVPRP, the figure is -0.157.
For RRIRCRPPRLPRPRPRPHHIPRP, the “shrunken log2 fold change” value was -0.88.
For RRIRSRPPRLPRPRPRPGDVPRP, the “shrunken log2 fold change” value is 0.204.
Turning to RRIRQRPPRLPRPRPRPEEHPRP, the “shrunken log2 fold change” value is -0.0135.
The figure for RRIRRRPPRLPRPRPRPYEWPRP is 0.00618; for RRIRQRPPRLPRPRPRPQCYPRP it is -0.168; for RRIRNRPPRLPRPRPRPGHDPRP it is 0.0277.
As for RRIRHRPPRLPRPRPRPWYQPRP, the figure is 0.0124; as for RRIRVRPPRLPRPRPRPRGMPRP, 0.274; as for RRIRVRPPRLPRPRPRPYEWPRP, -0.303.
For the sequence RRIRVRPPRLPRPRPRPDCCPRP, the “shrunken log2 fold change” value was -0.0439.
Regarding RRIRCRPPRLPRPRPRPDRSPRP, the “shrunken log2 fold change” value is 0.208.
As for RRIRARPPRLPRPRPRPKRCPRP, the figure is 0.079.
The figure for RRIRIRPPRLPRPRPRPVCFPRP is -0.256.
As for RRIRNRPPRLPRPRPRPNKNPRP, the “shrunken log2 fold change” value is -0.406.
RRIRCRPPRLPRPRPRPLGQPRP: the “shrunken log2 fold change” value stood at 0.16.
The figure for RRIRWRPPRLPRPRPRPAERPRP is 0.0973; for RRIRNRPPRLPRPRPRPLRHPRP it is -0.0731.
As for RRIRFRPPRLPRPRPRPWWPPRP, the figure is 0.0712.
For RRIRMRPPRLPRPRPRPEYSPRP, the “shrunken log2 fold change” value stood at 0.0257.
For RRIRARPPRLPRPRPRPQVTPRP, the “shrunken log2 fold change” value came out at 0.356.
As to RRIRWRPPRLPRPRPRPRTEPRP, the “shrunken log2 fold change” value was 0.225.
In the case of RRIRCRPPRLPRPRPRPTKKPRP, the “shrunken log2 fold change” value was -0.000922.
The figure for RRIRHRPPRLPRPRPRPVFLPRP is -0.582.
The figure for RRIRGRPPRLPRPRPRPVLLPRP is 0.122; for RRIRTRPPRLPRPRPRPPLMPRP it is -0.0314; for RRIRCRPPRLPRPRPRPDDSPRP it is 0.14.
RRIRKRPPRLPRPRPRPITSPRP: the “shrunken log2 fold change” value worked out at 0.22.
The figure for RRIRARPPRLPRPRPRPYMSPRP is 0.00296.
As for RRIRDRPPRLPRPRPRPNRCPRP, the figure is 0.0339; as for RRIRWRPPRLPRPRPRPHGPPRP, 0.0026; as for RRIRERPPRLPRPRPRPISFPRP, -0.441.
As for RRIRIRPPRLPRPRPRPWAHPRP, the figure is -0.923; as for RRIRYRPPRLPRPRPRPRLPPRP, -0.0393; as for RRIRFRPPRLPRPRPRPWKTPRP, -0.0119.
For RRIRTRPPRLPRPRPRPYYWPRP, the “shrunken log2 fold change” value is -0.0825.
Regarding RRIRRRPPRLPRPRPRPAVLPRP, the “shrunken log2 fold change” value was -0.00596.
As for RRIRKRPPRLPRPRPRPQLMPRP, the figure is 1.59.
As for RRIRTRPPRLPRPRPRPSWYPRP, the figure is -1.12; as for RRIRWRPPRLPRPRPRPLLKPRP, -0.0261.
Take RRIRNRPPRLPRPRPRPDNMPRP: the “shrunken log2 fold change” value was -0.104.
Consider RRIRTRPPRLPRPRPRPHGNPRP, for which the “shrunken log2 fold change” value is -0.718.
The figure for RRIRRRPPRLPRPRPRPCQTPRP is -0.041.
As for RRIRSRPPRLPRPRPRPPSLPRP, the figure is -0.119; as for RRIRNRPPRLPRPRPRPKWNPRP, -0.319; as for RRIRDRPPRLPRPRPRPPWRPRP, 0.499.
RRIRSRPPRLPRPRPRPIQTPRP: the “shrunken log2 fold change” value was -0.0822.
As for RRIRIRPPRLPRPRPRPHLQPRP, the figure is -0.343.
The figure for RRIRVRPPRLPRPRPRPLREPRP is 0.379; for RRIRPRPPRLPRPRPRPCCLPRP it is -0.439; for RRIRHRPPRLPRPRPRPIVSPRP it is -0.0219.
The figure for RRIRMRPPRLPRPRPRPKAWPRP is 0.0535; for RRIRYRPPRLPRPRPRPTACPRP it is -0.13; for RRIRPRPPRLPRPRPRPVDPPRP it is 0.0557.
On to RRIRQRPPRLPRPRPRPPEFPRP, for which the “shrunken log2 fold change” value was determined as 0.0335.
As for RRIRSRPPRLPRPRPRPWPNPRP, the figure is -0.13; as for RRIRGRPPRLPRPRPRPLGCPRP, 1.27; as for RRIRYRPPRLPRPRPRPVRHPRP, -0.245.
As for RRIRMRPPRLPRPRPRPMYGPRP, the figure is 0.0383.
As for RRIRIRPPRLPRPRPRPYPSPRP, the figure is -0.00978; as for RRIRIRPPRLPRPRPRPHMDPRP, -0.103.
On to RRIRSRPPRLPRPRPRPFFKPRP, for which the “shrunken log2 fold change” value is -0.192.
As for RRIRSRPPRLPRPRPRPYIEPRP, the figure is -0.183; as for RRIRKRPPRLPRPRPRPRKQPRP, 0.224; as for RRIRGRPPRLPRPRPRPQERPRP, 0.595.
As for RRIRLRPPRLPRPRPRPINAPRP, the figure is -0.177.
For RRIRGRPPRLPRPRPRPYQIPRP, the “shrunken log2 fold change” value is -0.118.
For the sequence RRIRSRPPRLPRPRPRPQCNPRP, the “shrunken log2 fold change” value was -0.13.
The figure for RRIRQRPPRLPRPRPRPIGWPRP is 0.256.
The figure for RRIRHRPPRLPRPRPRPQNHPRP is -0.922; for RRIRKRPPRLPRPRPRPWVFPRP it is 0.0817.
As for RRIRWRPPRLPRPRPRPFRFPRP, the figure is -0.0501; as for RRIRVRPPRLPRPRPRPQLMPRP, -0.224.
For the sequence RRIRLRPPRLPRPRPRPYCAPRP, the “shrunken log2 fold change” value was -0.151.
As for RRIRVRPPRLPRPRPRPQWQPRP, the figure is 0.0741; as for RRIRHRPPRLPRPRPRPIVAPRP, 0.0238.
As for RRIRPRPPRLPRPRPRPPGPPRP, the figure is 0.576; as for RRIRTRPPRLPRPRPRPDRFPRP, 0.0382; as for RRIRVRPPRLPRPRPRPRSWPRP, 0.325.
As for RRIRKRPPRLPRPRPRPPRIPRP, the figure is 0.323; as for RRIRKRPPRLPRPRPRPGPYPRP, 0.104; as for RRIRNRPPRLPRPRPRPSGLPRP, 0.0284.
In the case of RRIRWRPPRLPRPRPRPENTPRP, the “shrunken log2 fold change” value worked out at 0.167.
The figure for RRIRRRPPRLPRPRPRPDPDPRP is -0.0342.
